From article PMC2721222 (Cancer research, 2009)

Columns and labels:
[1] = molecular target: MUC1-CD cytoplasmic domain (Homo sapiens) (UniProt P15941); conditions: cited from earlier work
[2] = molecular target: T1, His-tagged MUC1 cytoplasmic domain (UniProt P15941 1182-1255); assay: SPR
T1 sequence (looked up): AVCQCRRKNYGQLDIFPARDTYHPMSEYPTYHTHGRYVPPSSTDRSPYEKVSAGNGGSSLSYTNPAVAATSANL

Question: Which Kd [1] does the source give for “MUC1-CD cytoplasmic domain (from UniProt P15941)” here?
Answer: Its Kd is 33 nM.

Question: With CQCRRKNYGQLDIFP (poly D-arginine transduction domain (D-residues)) [GO-201] as the molecule, how does the Kd [2] read?
Answer: The Kd was 30 nM.
